Numbering of substitutions follows the chain as printed.
B1: VAB 16G1-1 (antibody, V domains shown)
VH: EVKLAESGGGLVQPGGSLRLSCAASGFTFSSHWMNWVRQAPGKGLEWVANIKQDGSDKYYVDSVKGRFTISRDNAKNSLYLQLNSLIAEDTAVYYCARDRGVRPPRGAFDIWGQGTMVTVSS
VL: DIQMTQSPSSVSASVGDRVTITCRASQGISSWLAWYQQKPGKAPKLLIYAASSFQSGVPSRFSGSGSGTDFTLTISSLQPEDFATYFCQQANSFPLTFGGGTTVEIK
notes: 403/405; 407/409 without saying which was assayed; Apparently tested with mouse constant region (anti-mouse IgG capture/detection)
B2: VAB 5C5-11 (antibody, V domains shown)
VH: QVQLVQSGAEVQKPGASVKVSCKASGYTFTGQYIHWVRQAPGQGLEWMGWINPNSGGTNFAQKFQDRVTMTRDTSIGTVYMELRRLTSDDTAVFYCVREKRGFDIWGQGTMVTVSS
VL: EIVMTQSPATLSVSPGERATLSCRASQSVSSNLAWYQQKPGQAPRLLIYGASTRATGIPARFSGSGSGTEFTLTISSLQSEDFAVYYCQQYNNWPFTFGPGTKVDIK
notes: Apparently tested with mouse constant region (anti-mouse IgG capture/detection)
B3: VAB 1H1-2 (antibody, V domains shown)
VH: QVQLVQSGAEVKKPGASVKVSCKASGYTFTSYGISWVRQAPGQGLEWMGWISVYNGNTNYAQKLQGRVTMTTDTSTSTAYMDLRSLRSDDAAVYYCARGSGYDFDYWGQGTLVTVSS
VL: AIQMTQSPSSLSASVGDRVTITCRASQGIRNALGWYQQKPGKAPKLLIYAASSLQSGVPSRFSGSGSGTDFTLTISSLQSEDFATYYCLQDYNYPYTFGQGTKLEIK
notes: as for B2
B4: VAB 6C10-14 (antibody, V domains shown)
VH: B3 VH with S31N, I34L, S35T, Q43R, K63T, Q65K, D82E, R84K, A91T
VL: B3 VL with T20A, G28D, A32D, Y49H, A50T, S77N, S80P, Y92N, N93S, K107N
notes: as for B2
B5: VAB 3B4-10 (antibody, V domains shown)
VH: B3 VH with Q3H, S31N, S35G, V53I, K63R, Y80F, R87K, A91T, D103N, Y106H
VL: B3 VL with A32D, K39I, S77N, S80P, T85V, Y87F, Y92N, N93T, K103N, I106S
notes: as for B2
B6: VAB 4D5-3 (antibody, V domains shown)
VH: B3 VH with A9P, S31N, N57K, L64F, A91T
VL: B3 VL with Y49F, A51S, S76R, S80P, T85A
notes: as for B2
B7: VX 4E7-9 (antibody, V domains shown)
VH: B3 VH with S31N, N57K, S77T, D82E, L83M, A91T, F104L, T114S
VL: B3 VL with I75F, S80P, Y92F
notes: 387/389; Apparently tested with mouse constant region (anti-mouse IgG capture/detection)
B8: VAB 11G8-1 (antibody, V domains shown)
VH: B3 VH with S31N, N57H, D82E, A91T, Y106S
VL: B3 VL with P8S, G28A, L46V, V58I, S80P, N93D
notes: as for B2
B9: VAB 8G10-1 (antibody, V domains shown)
VH: B3 VH with A9P, S31N, T58I, A91T
VL: B3 VL with G28D, G66A, S80P, T85A
notes: as for B2

Target: T1, hIL-4R on cells (STAT6-transfected HEK293, TF1, TF1/A12) (human, UniProt P24394 26-825)
T1 sequence (looked up): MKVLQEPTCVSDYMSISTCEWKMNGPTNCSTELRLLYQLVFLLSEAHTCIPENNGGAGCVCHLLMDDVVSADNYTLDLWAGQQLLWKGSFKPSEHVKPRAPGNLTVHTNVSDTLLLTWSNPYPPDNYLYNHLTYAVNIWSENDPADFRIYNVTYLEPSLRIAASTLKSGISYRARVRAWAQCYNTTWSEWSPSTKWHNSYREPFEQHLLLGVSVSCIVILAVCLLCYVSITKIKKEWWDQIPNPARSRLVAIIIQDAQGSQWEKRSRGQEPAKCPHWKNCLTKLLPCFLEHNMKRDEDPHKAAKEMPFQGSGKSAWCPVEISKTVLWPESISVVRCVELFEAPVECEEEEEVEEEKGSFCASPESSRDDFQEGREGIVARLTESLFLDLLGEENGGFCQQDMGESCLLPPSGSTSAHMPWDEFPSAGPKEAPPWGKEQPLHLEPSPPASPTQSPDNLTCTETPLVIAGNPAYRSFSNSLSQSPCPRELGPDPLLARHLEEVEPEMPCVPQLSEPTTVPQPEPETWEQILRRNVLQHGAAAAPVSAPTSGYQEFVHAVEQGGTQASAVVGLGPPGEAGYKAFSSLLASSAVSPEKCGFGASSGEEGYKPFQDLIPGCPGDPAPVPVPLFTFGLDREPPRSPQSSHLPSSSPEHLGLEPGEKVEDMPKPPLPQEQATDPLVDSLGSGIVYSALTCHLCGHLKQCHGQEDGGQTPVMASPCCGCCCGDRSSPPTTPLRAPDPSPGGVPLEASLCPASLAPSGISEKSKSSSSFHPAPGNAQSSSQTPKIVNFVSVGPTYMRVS
Assay: cell-based or functional assay

| Binder | STAT6 Bioassay IC50 (HEK293 STAT6 luciferase, 10 pM hIL-4) [nM] | TF1/A12 Bioassay IC50 (proliferation, 20 pM hIL-4) [nM] | TF1 Bioassay IC50 (proliferation, 50 pM hIL-4) [nM] |
| --- | --- | --- | --- |
| B1 | 0.14 | 0.7 | 0.12 |
| B2 | 0.14 | 0.37 | 0.21 |
| B3 | > 10 | > 50 |  |
| B4 | > 10 | 23 |  |
| B5 | > 10 | > 50 |  |
| B6 | 3.8 | 21 |  |
| B7 | 7.9 | 10 |  |
| B8 | > 10 | > 50 |  |
| B9 | > 10 | > 50 |  |

Target: T1, hIL-4R on cells (STAT6-transfected …)
Assay: cell-based or functional assay
Remark: another data set of the same source

| Binder | STAT6 Bioassay IC50 (HEK293 STAT6 luciferase, 40 pM hIL-13) | TF1 Bioassay IC50 (proliferation, 150 pM hIL-13) [nM] |
| --- | --- | --- |
| B1 | 90 pM | 0.44 |
| B2 | 60 pM | 0.82 |
| B3 | > 10 nM |  |
| B4 | > 10 nM |  |
| B5 | 8.3 nM |  |
| B6 | 3.3 nM |  |
| B7 | 6.3 nM |  |
| B8 | 8.8 nM |  |
| B9 | > 10 nM |  |

Target: T2, mouse IL-4R (mouse, UniProt P16382 26-233, limits assumed)
T2 sequence (looked up): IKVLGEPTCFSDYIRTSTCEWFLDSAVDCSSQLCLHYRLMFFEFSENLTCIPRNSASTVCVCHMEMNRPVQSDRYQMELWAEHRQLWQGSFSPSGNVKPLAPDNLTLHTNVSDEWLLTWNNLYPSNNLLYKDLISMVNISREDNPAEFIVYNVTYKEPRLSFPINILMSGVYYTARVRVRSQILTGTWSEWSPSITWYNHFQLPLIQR
Assay: binding affinity test of Example 2 (method not restated)

| Binder | binding result |
| --- | --- |
| B1 | no binding |
| B2 | no binding |
| B3 | no binding |
| B4 | no binding |
| B5 | no binding |
| B6 | no binding |
| B7 | no binding |
| B8 | no binding |
| B9 | no binding |

Target: T3, monomeric hIL-4R (R&D Systems) (human, UniProt P24394 26-231)
T3 construct: Bought (R&D Systems); also called hIL-4R monomer
T3 sequence: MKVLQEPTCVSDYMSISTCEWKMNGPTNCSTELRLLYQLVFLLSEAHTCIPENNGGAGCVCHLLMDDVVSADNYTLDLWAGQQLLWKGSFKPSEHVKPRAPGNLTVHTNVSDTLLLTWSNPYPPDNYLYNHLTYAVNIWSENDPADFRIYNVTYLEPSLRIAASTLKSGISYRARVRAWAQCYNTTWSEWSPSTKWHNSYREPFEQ
Assay: SPR (BIAcore 2000); antibody captured, monomeric hIL-4R injected
Description: (§1) Binding affinity (KD) of selected antibodies with respect to hIL-4R was determined using a real-time biosensor surface plasmon resonance assay (BIAcore™ 2000). Briefly, antibody was captured on a goat anti-mouse (GAM) IgG polyclonal antibody surface created through direct chemical coupling of the GAM IgG to a BIAcore™ chip to form a captured antibody surface. […] Binding of antigen to antibody and dissociation of the bound complex, were monitored in real time. Equilibrium dissociation constants (KD) and dissociation rate constants were ascertained by performing kinetic analysis using BIA evaluation software. BIA evaluation software was also used to calculate the half-life of antigen/antibody complex dissociation (T_{1/2}). […] The binding affinity of anti-hIL-4R antibodies to either mouse or monkey (Macaca fascicularis) IL-4R was also tested.

| Binder | Kd [nM] | T1/2 monomeric [h] |
| --- | --- | --- |
| B1 | 0.93 | 0.25 |
| B2 | 0.13 | 0.783 |
| B3 | 34.9 | 0.133 |
| B4 | 1.77 | 1.22 |
| B5 | 0.59 | 1.7 |
| B6 | 2.02 | 0.583 |
| B7 | 1.43 | 0.8 |
| B8 | 1.63 | 0.417 |
| B9 | 7.71 | 0.467 |

Target: T4, dimeric hIL-4R-hFc (human, UniProt P24394 26-232)
T4 construct: also called hIL-4R-Fc; not shown: human Fc (hFc)
T4 sequence: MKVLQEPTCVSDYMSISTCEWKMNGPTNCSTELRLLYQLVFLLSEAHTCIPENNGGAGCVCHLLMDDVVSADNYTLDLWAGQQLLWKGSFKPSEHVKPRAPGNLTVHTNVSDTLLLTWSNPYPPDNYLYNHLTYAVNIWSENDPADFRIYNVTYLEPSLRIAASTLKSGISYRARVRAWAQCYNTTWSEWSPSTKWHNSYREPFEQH
Assay: SPR (BIAcore 2000); antibody captured, dimeric hIL-4R-hFc injected
Description: as §1

| Binder | Kd [nM] | T1/2 dimeric [h] |
| --- | --- | --- |
| B1 | 0.038 | 7.3 |
| B2 | 0.027 | 7.7 |
| B3 | 0.139 | 8.2 |
| B4 | 0.286 | 6.2 |
| B5 | 0.053 | 20.4 |
| B6 | 0.032 | 20.4 |
| B7 | 0.111 | 19.1 |
| B8 | 0.108 | 8.7 |
| B9 | 5.51 | 4.1 |

Target: T4, dimeric hIL-4R-hFc
Assay: ELISA; antibody titrated against 25 pM hIL-4R-Fc, free receptor caught on hIL-4 plate
Description: Concentration of free hIL-4R-Fc (no antibody bound) was determined using a hIL-4R-specific sandwich ELISA. […] After a one-hour incubation at room temperature, the detection plate was washed and plate-bound hIL-4R-hFc was detected using HRP conjugated goat anti-hFc polyclonal antibodies and developed using colorimetric substrates such as BD OptEIA™ (BD Biosciences Pharmingen, San Diego, Calif.). After the reaction was stopped with 1 M phosphoric or sulfuric acid, absorbances at 450 nm were recorded and the data were analyzed using GraphPad™ Prism software.

| Binder | IC50 [nM] |
| --- | --- |
| B1 | 0.018 |
| B2 | 0.024 |
| B3 | 0.146 |
| B4 | 0.441 |
| B5 | 0.322 |
| B6 | 0.24 |
| B7 | 0.118 |
| B8 | 0.24 |
| B9 | 0.244 |

Target: T4, dimeric hIL-4R-hFc
Assay: SPR; reduction of hIL-4 (50 nM) binding to captured hIL-4R-hFc after antibody; competitor hIL-4
From the text: Purified hIL-4R-hFc molecules were captured by goat anti-human IgG polyclonal antibody immobilized on CM-5 to a density of 260 RU, to prepare a receptor-coated surface.

| Binder | % Inhibition (BIAcore) [%] |
| --- | --- |
| B1 | 92 |
| B2 | 96 |
| B3 | 78 |
| B4 | 79 |
| B5 | 72 |
| B6 | 82 |
| B7 | 79 |
| B8 | 77 |
| B9 | 74 |
